According to patent US20090203595A1 (ZENSUN SHANGHAI SCIENCE AND TECHNOLOGY, published 2009):
Changes are numbered by the printed parent chain. Numbers in names are those of the source. Blank lines part the entries; values can stand above or below the binder they belong to.

Legend:
[1] = target: T1, ErbB2&ErbB3 co-expressed on COS7 cells (UniProt P04626 23-1255; P21860 20-1342, limits assumed); test: receptor binding affinity assay on COS7 cells co-expressing ErbB2&ErbB3
T1 construct: whole, on cells; Both receptors are co-expressed on the same cells, and the numbers are for these cells, not for a single receptor; also called COS7 cells (ErbB2&ErbB3 co-expression)
Protocol: (§1) To study the receptor binding affinity of neuregulin and its mutations, ErbB2&ErbB3 or ErbB2&ErbB4 co-expressing COS7 are used. The cells are grown to 80% confluence. In the afternoon, after the cells reach 80% confluence, the media is changed to serum free media. Then, after 24 hours, the cells are harvested for receptor binding affinity assays.

[2] = target: T2, ErbB2&ErbB4 co-expressed on COS7 cells (UniProt P04626 23-1255; Q15303 26-1308, limits assumed); test: competition of bound radiolabeled ligands on COS7 cells co-expressing ErbB2&ErbB4
T2 construct: whole, on cells; Both receptors are co-expressed on the same cells, and the numbers are for these cells, not for a single receptor; also called COS7 cells (ErbB2&ErbB4 co-expression)
Protocol: as §1

[3] = target: T2, ErbB2&ErbB4 co-expressed on COS7 cells; test: receptor binding affinity assay on COS7 cells co-expressing ErbB2&ErbB4
Protocol: as §1

[4] = target: T1, ErbB2&ErbB3 co-expressed on COS7 cells; test: competition of bound radiolabeled ligands on COS7 cells co-expressing ErbB2&ErbB3
Protocol: as §1

- Kd [1]: 1.41 nM
- EC50 [2]: 132 nM
- Kd [3]: 0.282 nM
- EC50 [4]: 113 nM
B1: neuregulin (the 177-237 amino acids fragment of neuregulin1 β2) (ligand)
chain: SHLVKCAEKEKTFCVNGGECFMVKDLSNPSRYLCKCPNEFTGDRCQNYVMASFYKAEELYQ
notes: also called NRG; NRG-1β

- EC50 [2]: 40.7 nM
- EC50 [4]: 149 nM
B2: neuregulin variant D43A (ligand)
chain: B1 chain with D43A

- Kd [1]: 1.15 nM
- Kd [3]: 1.06 nM
B3: neuregulin variant L3A (ligand)
chain: B1 chain with L3A
